Ten molecules from patent publication US20230212549A1 (3B PHARMACEUTICALS, published 2023) can be followed below.

Test [1] concerns the target T1, fibroblast activation protein (FAP) on FAP-expressing human WI-38 fibroblasts (human, UniProt Q12884 1-760).
T1 construct: also called human FAP
The test is described as follows: competitive FACS, WI-38 cells, vs Cy5 tracer m3; B = pIC50 7.1-8.0.

In test [2] the target is Recombinant human FAP (R&D systems, #3715-SE) (human, UniProt Q12884 26-760). The test can be described thus: cell-based or functional assay.

Several values for one entry are separate records, joined by “and”; a condition that tells them apart may be missing. Identical values can stand only once. Numbered stars: 1 amine (or outer) side, 2 acyl side, 3 side chain; on linkers, the order of the positions; unused ones are H or OH. Bridge positions count the residues as written; N and C are the ends. Square brackets hold non-standard residues; d marks the D form. Primed or numbered codes have the meaning given here. * marks the point of attachment. Ttds″ = 1,13-diamino-4,7,10-trioxatridecan-succinamic acid spacer, O=C(CCC(=O)[*:2])NCCCOCCOCCOCCCN[*:1]; Ttds = 1,13-diamino-4,7,10-trioxatridecan-succinamic acid, O=C(CCC(=O)[*:2])NCCCOCCOCCOCCCN[*:1]; DOTA = O=C(O)CN1CCN(CC(=O)O)CCN(CC(=O)*)CCN(CC(=O)O)CC1; mXylylene = c1cc(C[*:1])cc(C[*:2])c1; NMeF = CN[C@@H](Cc1ccccc1)C(=O)O; Aib = CC(C)(N)C(=O)O; βAla = NCCC(=O)O

B1: Ac-Met-[Cys(3MeBn)-Aib-Pro-Thr-Glu-Phe-Cys]-Asp-His-Phe-Arg-Asp-NH2 (peptide)
peptide: Ac-MC[Aib]PTEFCDHFRD-NH2
modifications: linker 2-8 via mXylylene
SMILES: CSCC[C@H](NC(C)=O)C(=O)N[C@H]1CSCc2cccc(c2)CSC[C@@H](C(=O)N[C@@H](CC(=O)O)C(=O)N[C@@H](Cc2c[nH]cn2)C(=O)N[C@@H](Cc2ccccc2)C(=O)N[C@@H](CCCNC(=N)N)C(=O)N[C@@H](CC(=O)O)C(N)=O)NC(=O)[C@H](Cc2ccccc2)NC(=O)[C@H](CCC(=O)O)NC(=O)[C@H]([C@@H](C)O)NC(=O)[C@@H]2CCCN2C(=O)C(C)(C)NC1=O
notes: also called 3BP-3204
As to B1, in test [1], the “pIC50 Category (FACS)” value is 7.1 pIC50 and 8 pIC50. For the same molecule, the “pIC50 Category (Activity)” value in test [2] is 7.1 pIC50 and 8 pIC50.

B2: Ac-Met-[Cys(3MeBn)-Pro-pro-Thr-Glu-Phe-Cys]-Asp-His-Phe-Arg-Asp-NH2 (peptide)
peptide: Ac-MCP[dP]TEFCDHFRD-NH2
modifications: linker 2-8 via mXylylene
SMILES: CSCC[C@H](NC(C)=O)C(=O)N[C@H]1CSCc2cccc(c2)CSC[C@@H](C(=O)N[C@@H](CC(=O)O)C(=O)N[C@@H](Cc2c[nH]cn2)C(=O)N[C@@H](Cc2ccccc2)C(=O)N[C@@H](CCCNC(=N)N)C(=O)N[C@@H](CC(=O)O)C(N)=O)NC(=O)[C@H](Cc2ccccc2)NC(=O)[C@H](CCC(=O)O)NC(=O)[C@H]([C@@H](C)O)NC(=O)[C@H]2CCCN2C(=O)[C@@H]2CCCN2C1=O
notes: also called 3BP-3177
For B2, in test [1], the “pIC50 Category (FACS)” value is 7.1 pIC50 and 8 pIC50. In addition, the “pIC50 Category (Activity)” value in test [2] is 7.1 pIC50 and 8 pIC50.

B3: Ac-Met-[Cys(3MeBn)-Pro-Pro-Thr-Glu-Phe-Cys]-asp-His-Phe-Arg-Asp-NH2 (peptide)
peptide: Ac-MCPPTEFC[dD]HFRD-NH2
modifications: linker 2-8 via mXylylene
SMILES: CSCC[C@H](NC(C)=O)C(=O)N[C@H]1CSCc2cccc(c2)CSC[C@@H](C(=O)N[C@H](CC(=O)O)C(=O)N[C@@H](Cc2c[nH]cn2)C(=O)N[C@@H](Cc2ccccc2)C(=O)N[C@@H](CCCNC(=N)N)C(=O)N[C@@H](CC(=O)O)C(N)=O)NC(=O)[C@H](Cc2ccccc2)NC(=O)[C@H](CCC(=O)O)NC(=O)[C@H]([C@@H](C)O)NC(=O)[C@@H]2CCCN2C(=O)[C@@H]2CCCN2C1=O
notes: also called 3BP-3183
For the molecule B3, the “pIC50 Category (FACS)” value in test [1] is 7.1 pIC50 and 8 pIC50. Moreover, the “pIC50 Category (Activity)” value in test [2] was 7.1 pIC50 and 8 pIC50.

B4: Ac-Met-[Cys(3MeBn)-Pro-Pro-Thr-glu-Phe-Cys]-Asp-His-Phe-Arg-Asp-NH2 (peptide)
peptide: Ac-MCPPT[dE]FCDHFRD-NH2
modifications: linker 2-8 via mXylylene
SMILES: CSCC[C@H](NC(C)=O)C(=O)N[C@H]1CSCc2cccc(c2)CSC[C@@H](C(=O)N[C@@H](CC(=O)O)C(=O)N[C@@H](Cc2c[nH]cn2)C(=O)N[C@@H](Cc2ccccc2)C(=O)N[C@@H](CCCNC(=N)N)C(=O)N[C@@H](CC(=O)O)C(N)=O)NC(=O)[C@H](Cc2ccccc2)NC(=O)[C@@H](CCC(=O)O)NC(=O)[C@H]([C@@H](C)O)NC(=O)[C@@H]2CCCN2C(=O)[C@@H]2CCCN2C1=O
notes: also called 3BP-3179
With B4, the “pIC50 Category (FACS)” value in test [1] was 7.1 pIC50 and 8 pIC50. Moreover, in test [2], the “pIC50 Category (Activity)” value is 6.1 pIC50 and 7 pIC50.

B5: Ac-Met-[Cys(3MeBn)-Pro-Pro-Thr-Glu-Phe-cys]-Asp-His-Phe-Arg-Asp-NH2 (peptide)
peptide: Ac-MCPPTEF[dC]DHFRD-NH2
modifications: linker 2-8 via mXylylene
SMILES: CSCC[C@H](NC(C)=O)C(=O)N[C@H]1CSCc2cccc(c2)CSC[C@H](C(=O)N[C@@H](CC(=O)O)C(=O)N[C@@H](Cc2c[nH]cn2)C(=O)N[C@@H](Cc2ccccc2)C(=O)N[C@@H](CCCNC(=N)N)C(=O)N[C@@H](CC(=O)O)C(N)=O)NC(=O)[C@H](Cc2ccccc2)NC(=O)[C@H](CCC(=O)O)NC(=O)[C@H]([C@@H](C)O)NC(=O)[C@@H]2CCCN2C(=O)[C@@H]2CCCN2C1=O
notes: also called 3BP-3182
B5: the “pIC50 Category (FACS)” value in test [1] was 7.1 pIC50 and 8 pIC50. In addition, the “pIC50 Category (Activity)” value in test [2] is 7.1 pIC50 and 8 pIC50.

B6: Ac-Met-[Cys(3MeBn)-Pro-Pro-thr-Glu-Phe-Cys]-Asp-His-Phe-Arg-Asp-NH2 (peptide)
peptide: Ac-MCPP[dT]EFCDHFRD-NH2
modifications: linker 2-8 via mXylylene
SMILES: CSCC[C@H](NC(C)=O)C(=O)N[C@H]1CSCc2cccc(c2)CSC[C@@H](C(=O)N[C@@H](CC(=O)O)C(=O)N[C@@H](Cc2c[nH]cn2)C(=O)N[C@@H](Cc2ccccc2)C(=O)N[C@@H](CCCNC(=N)N)C(=O)N[C@@H](CC(=O)O)C(N)=O)NC(=O)[C@H](Cc2ccccc2)NC(=O)[C@H](CCC(=O)O)NC(=O)[C@@H]([C@H](C)O)NC(=O)[C@@H]2CCCN2C(=O)[C@@H]2CCCN2C1=O
notes: also called 3BP-3178
As to B6, the “pIC50 Category (FACS)” value in test [1] was 7.1 pIC50 and 8 pIC50. Further, the “pIC50 Category (Activity)” value in test [2] is 7.1 pIC50 and 8 pIC50.

B7: Ac-Met-[cys(3MeBn)-Pro-Pro-Thr-Glu-Phe-cys]-Asp-His-Phe-Arg-Asp-NH2 (peptide)
peptide: Ac-M[dC]PPTEF[dC]DHFRD-NH2
modifications: linker 2-8 via mXylylene
SMILES: CSCC[C@H](NC(C)=O)C(=O)N[C@@H]1CSCc2cccc(c2)CSC[C@H](C(=O)N[C@@H](CC(=O)O)C(=O)N[C@@H](Cc2c[nH]cn2)C(=O)N[C@@H](Cc2ccccc2)C(=O)N[C@@H](CCCNC(=N)N)C(=O)N[C@@H](CC(=O)O)C(N)=O)NC(=O)[C@H](Cc2ccccc2)NC(=O)[C@H](CCC(=O)O)NC(=O)[C@H]([C@@H](C)O)NC(=O)[C@@H]2CCCN2C(=O)[C@@H]2CCCN2C1=O
notes: also called 3BP-3181
With B7, the “pIC50 Category (FACS)” value in test [1] was 7.1 pIC50 and 8 pIC50. Also, in test [2], the “pIC50 Category (Activity)” value was 7.1 pIC50 and 8 pIC50.

B8: DOTA-Ttds-Glu-[Cys(3MeBn)-Pro-Pro-Thr-Glu-Phe-Cys]-Asp-His-Phe-Arg-Asp-NH2 (peptide)
peptide: {DOTA}-[Ttds″]ECPPTEFCDHFRD-NH2
modifications: linker 3-9 via mXylylene
SMILES: C[C@@H](O)[C@@H]1NC(=O)[C@@H]2CCCN2C(=O)[C@@H]2CCCN2C(=O)[C@@H](NC(=O)[C@H](CCC(=O)O)NC(=O)CCC(=O)NCCCOCCOCCOCCCNC(=O)CN2CCN(CC(=O)O)CCN(CC(=O)O)CCN(CC(=O)O)CC2)CSCc2cccc(c2)CSC[C@@H](C(=O)N[C@@H](CC(=O)O)C(=O)N[C@@H](Cc2c[nH]cn2)C(=O)N[C@@H](Cc2ccccc2)C(=O)N[C@@H](CCCNC(=N)N)C(=O)N[C@@H](CC(=O)O)C(N)=O)NC(=O)[C@H](Cc2ccccc2)NC(=O)[C@H](CCC(=O)O)NC1=O
notes: also called 3BP-3173
For the molecule B8, the “pIC50 Category (FACS)” value in test [1] is 7.1 pIC50 and 8 pIC50. Besides, the “pIC50 Category (Activity)” value in test [2] was 7.1 pIC50 and 8 pIC50.

B9: DOTA-Ttds-Phe-[Cys(3MeBn)-Pro-Pro-Thr-Glu-Phe-Cys]-Asp-His-Phe-Arg-Asp-NH2 (peptide)
peptide: {DOTA}-[Ttds]FCPPTEFCDHFRD-NH2
modifications: linker 3-9 via mXylylene
SMILES: C[C@@H](O)[C@@H]1NC(=O)[C@@H]2CCCN2C(=O)[C@@H]2CCCN2C(=O)[C@@H](NC(=O)[C@H](Cc2ccccc2)NC(=O)CCC(=O)NCCCOCCOCCOCCCNC(=O)CN2CCN(CC(=O)O)CCN(CC(=O)O)CCN(CC(=O)O)CC2)CSCc2cccc(c2)CSC[C@@H](C(=O)N[C@@H](CC(=O)O)C(=O)N[C@@H](Cc2c[nH]cn2)C(=O)N[C@@H](Cc2ccccc2)C(=O)N[C@@H](CCCNC(=N)N)C(=O)N[C@@H](CC(=O)O)C(N)=O)NC(=O)[C@H](Cc2ccccc2)NC(=O)[C@H](CCC(=O)O)NC1=O
notes: also called 3BP-3171
In the case of B9, the “pIC50 Category (FACS)” value in test [1] was 7.1 pIC50 and 8 pIC50. Besides, the “pIC50 Category (Activity)” value in test [2] is 7.1 pIC50 and 8 pIC50.

B10: DOTA-Bal-[Cys(3MeBn)-Pro-Pro-Thr-Glu-Phe-Cys]-Asp-His-Nmf-Arg-Asp-NH2 (peptide)
peptide: {DOTA}-[βAla]CPPTEFCDH[NMeF]RD-NH2
modifications: linker 2-8 via mXylylene
SMILES: C[C@@H](O)[C@@H]1NC(=O)[C@@H]2CCCN2C(=O)[C@@H]2CCCN2C(=O)[C@@H](NC(=O)CCNC(=O)CN2CCN(CC(=O)O)CCN(CC(=O)O)CCN(CC(=O)O)CC2)CSCc2cccc(c2)CSC[C@@H](C(=O)N[C@@H](CC(=O)O)C(=O)N[C@@H](Cc2c[nH]cn2)C(=O)N(C)[C@@H](Cc2ccccc2)C(=O)N[C@@H](CCCNC(=N)N)C(=O)N[C@@H](CC(=O)O)C(N)=O)NC(=O)[C@H](Cc2ccccc2)NC(=O)[C@H](CCC(=O)O)NC1=O
notes: also called 3BP-3264
For B10, in test [1], the “pIC50 Category (FACS)” value was 7.1 pIC50 and 8 pIC50. In test [2], the “pIC50 Category (Activity)” value is 7.1 pIC50 and 8 pIC50.
